Legend:
[1] = tested on: HMW-MAA; test: ELISA of soluble scFv antibodies with cell lines; format: binding, human; settings: soluble scFv clones isolated by panning with Colo38 cells
Description: FIG. 1. Selective reactivity in ELISA of soluble scFv C21 with HMW-MAA^+ human cell lines. […] Binding of scFv fragments was detected using SA-HRP. Results are expressed as absorbance at 490 nm. Human anti-anti-id scFv #119 ( ? ) was used as a specificity control.
The ELISA to test the reactivity of soluble scFv antibodies with synthetic peptides and melanoma cells and of mouse immune sera with melanoma cells and with peptides was performed as described (Desai et al., Cancer Res 58:2417-2425, 1998; Desai et al., J Immunol 165:3275-3283, 2000; Matsui et al., J Immunol 139:2088-2095, 1987). Results are expressed as absorbance of optical density (O.D.) at 450 nm. The competition assay to map the antigenic determinant recognized by scFv C21 was performed by mixing biotinylated scFv C21 (0.25 μg/well) with two-fold dilutions of mouse mAb or scFv PP or by mixing biotinylated mAb (at an optimal amount giving absorbance, measured at 450 nm of 1.0) with two fold dilutions of scFv PP. […] Binding of biotinylated scFv antibodies and biotinylated mAb to target cells was measured by sequential incubation with SA-HRP and substrate as described (Noronha et al., J Immunol 161:2968-2976, 1998). The results are expressed as percent inhibition by mAb, scFv or peptide (competitor or inhibitor) of scFv or mAb binding to HMW-MAA^+ cells. […]

[2] = biological target: T1, HMW-MAA (Homo sapiens, UniProt Q6UVK1); test: Indirect immunoperoxidase staining of melanocytic lesions; format: binding; design: from tissue; host or cells: human nevi, primary and metastatic melanoma lesions (frozen sections)
Description: FIGS. 6A-6F. Immunohistochemical staining by scFv C21 of frozen surgically removed human nevi and melanoma lesions. scFv C21 stains a frozen nevus (FIG. 6A), a frozen primary melanoma lesion (FIG. 6B) and a frozen metastatic melanoma lesion (FIG. 6C). The specificity of the staining was monitored by staining the nevus (FIG. 6D), the primary (FIG. 6E) and the metastatic (FIG. 6F) melanoma lesions with the unrelated scFv #119.
The human melanoma cell lines Colo38, FO-1 and Melur and the human B lymphoid cell line LG2 were maintained in RPMI 1640 medium (Tissue Culture Media Facility, Roswell Park Cancer Institute (RPCI), Buffalo, N.Y.) supplemented with 10% serum plus supplement (BioWhittaker, Walkersville, Md.) and 2 mM L-glutamine (BioWhittaker). The human melanoma cell lines M14 and SK-MEL-28, the human fibroblasts FF2376, the human breast carcinoma cell line T47D, the human bladder carcinoma cell line T24, the human prostate carcinoma cell line PC3, the human B lymphoid cell lines JY and LKT13, and the rat neural cell line B49 were maintained in RPMI 1640 medium supplemented with 10% fetal bovine serum (FBS) (BioWhittaker) and 2 mM L-glutamine. The M14/HMW-MAA cells which express HMW-MAA following transfection of M14 cells with a plasmid DNA of pcDNA 3.1™ (+)/full length of HMW-MAA DNA construct (Yang et al., J Cell Biol 165:881-891, 2004) were grown in RPMI 1640 medium supplemented with 10% FBS, 2 mM L-glutamine and 0.4 mg/ml G418 (Promega, Madison, Wis.). Cells were cultured at 37° C. in a 5% CO2 atmosphere. Cell lysates were prepared as described (Desai et al., Cancer Res 58:2417-2425, 1998, herein incorporated by reference). Lesions of melanocytic origin were obtained from patients who had undergone surgery in the Department of Dermatology at Kumamoto University School of Medicine (Kumamoto, Japan). The diagnosis of melanoma lesions was based on histopathologic characteristics. The frozen and formalin-fixed tissue sections were prepared as described previously (Desai et al., Cancer Res 58:2417-2425, 1998, herein incorporated by reference).
The indirect immunoperoxidase staining of frozen and formalin-fixed tissue sections was performed as described previously (Desai et al., Cancer Res 58:2417-2425, 1998, herein incorporated by reference).

[3] = biological target: T1, HMW-MAA; test: Competition assay to map the antigenic determinant on SK-MEL-28 cells; format: binding; design: from tissue; host or cells: human nevi, primary and metastatic melanoma lesions (frozen sections); settings: biotinylated mAb VF1-TP34, competitor PP scFv C21
Description: FIG. 5. Spatial proximity of the determinant defined by scFv C21 and of that defined by mouse mAb VF1-TP34 on HMW-MAA^+ melanoma cells SK-MEL-28. Varying concentrations of mAb VF1-TP34 (-●-) (left panel) were mixed with biotinylated scFv C21 (0.25 μg/well). The mixture was then transferred to wells containing HMW-MAA^+ cells and incubated for 1 h at 4° C. Binding of antibodies was detected using SA-HRP. Results are expressed as % inhibition. Likewise, varying amounts of PP scFv C21 (-▴-) (right panel) were mixed with biotinylated mAb VF1-TP34 (40 ng/well). The mixture was then transferred to wells containing HMW-MAA^+ cells and incubated for 1 h at 4° C. […]
The ELISA to test the reactivity of soluble scFv antibodies with synthetic peptides and melanoma cells and of mouse immune sera with melanoma cells and with peptides was performed as described (Desai et al., Cancer Res 58:2417-2425, 1998; Desai et al., J Immunol 165:3275-3283, 2000; Matsui et al., J Immunol 139:2088-2095, 1987). Results are expressed as absorbance of optical density (O.D.) at 450 nm. The competition assay to map the antigenic determinant recognized by scFv C21 was performed by mixing biotinylated scFv C21 (0.25 μg/well) with two-fold dilutions of mouse mAb or scFv PP or by mixing biotinylated mAb (at an optimal amount giving absorbance, measured at 450 nm of 1.0) with two fold dilutions of scFv PP. […]

T1 sequence (Q6UVK1 30-2322): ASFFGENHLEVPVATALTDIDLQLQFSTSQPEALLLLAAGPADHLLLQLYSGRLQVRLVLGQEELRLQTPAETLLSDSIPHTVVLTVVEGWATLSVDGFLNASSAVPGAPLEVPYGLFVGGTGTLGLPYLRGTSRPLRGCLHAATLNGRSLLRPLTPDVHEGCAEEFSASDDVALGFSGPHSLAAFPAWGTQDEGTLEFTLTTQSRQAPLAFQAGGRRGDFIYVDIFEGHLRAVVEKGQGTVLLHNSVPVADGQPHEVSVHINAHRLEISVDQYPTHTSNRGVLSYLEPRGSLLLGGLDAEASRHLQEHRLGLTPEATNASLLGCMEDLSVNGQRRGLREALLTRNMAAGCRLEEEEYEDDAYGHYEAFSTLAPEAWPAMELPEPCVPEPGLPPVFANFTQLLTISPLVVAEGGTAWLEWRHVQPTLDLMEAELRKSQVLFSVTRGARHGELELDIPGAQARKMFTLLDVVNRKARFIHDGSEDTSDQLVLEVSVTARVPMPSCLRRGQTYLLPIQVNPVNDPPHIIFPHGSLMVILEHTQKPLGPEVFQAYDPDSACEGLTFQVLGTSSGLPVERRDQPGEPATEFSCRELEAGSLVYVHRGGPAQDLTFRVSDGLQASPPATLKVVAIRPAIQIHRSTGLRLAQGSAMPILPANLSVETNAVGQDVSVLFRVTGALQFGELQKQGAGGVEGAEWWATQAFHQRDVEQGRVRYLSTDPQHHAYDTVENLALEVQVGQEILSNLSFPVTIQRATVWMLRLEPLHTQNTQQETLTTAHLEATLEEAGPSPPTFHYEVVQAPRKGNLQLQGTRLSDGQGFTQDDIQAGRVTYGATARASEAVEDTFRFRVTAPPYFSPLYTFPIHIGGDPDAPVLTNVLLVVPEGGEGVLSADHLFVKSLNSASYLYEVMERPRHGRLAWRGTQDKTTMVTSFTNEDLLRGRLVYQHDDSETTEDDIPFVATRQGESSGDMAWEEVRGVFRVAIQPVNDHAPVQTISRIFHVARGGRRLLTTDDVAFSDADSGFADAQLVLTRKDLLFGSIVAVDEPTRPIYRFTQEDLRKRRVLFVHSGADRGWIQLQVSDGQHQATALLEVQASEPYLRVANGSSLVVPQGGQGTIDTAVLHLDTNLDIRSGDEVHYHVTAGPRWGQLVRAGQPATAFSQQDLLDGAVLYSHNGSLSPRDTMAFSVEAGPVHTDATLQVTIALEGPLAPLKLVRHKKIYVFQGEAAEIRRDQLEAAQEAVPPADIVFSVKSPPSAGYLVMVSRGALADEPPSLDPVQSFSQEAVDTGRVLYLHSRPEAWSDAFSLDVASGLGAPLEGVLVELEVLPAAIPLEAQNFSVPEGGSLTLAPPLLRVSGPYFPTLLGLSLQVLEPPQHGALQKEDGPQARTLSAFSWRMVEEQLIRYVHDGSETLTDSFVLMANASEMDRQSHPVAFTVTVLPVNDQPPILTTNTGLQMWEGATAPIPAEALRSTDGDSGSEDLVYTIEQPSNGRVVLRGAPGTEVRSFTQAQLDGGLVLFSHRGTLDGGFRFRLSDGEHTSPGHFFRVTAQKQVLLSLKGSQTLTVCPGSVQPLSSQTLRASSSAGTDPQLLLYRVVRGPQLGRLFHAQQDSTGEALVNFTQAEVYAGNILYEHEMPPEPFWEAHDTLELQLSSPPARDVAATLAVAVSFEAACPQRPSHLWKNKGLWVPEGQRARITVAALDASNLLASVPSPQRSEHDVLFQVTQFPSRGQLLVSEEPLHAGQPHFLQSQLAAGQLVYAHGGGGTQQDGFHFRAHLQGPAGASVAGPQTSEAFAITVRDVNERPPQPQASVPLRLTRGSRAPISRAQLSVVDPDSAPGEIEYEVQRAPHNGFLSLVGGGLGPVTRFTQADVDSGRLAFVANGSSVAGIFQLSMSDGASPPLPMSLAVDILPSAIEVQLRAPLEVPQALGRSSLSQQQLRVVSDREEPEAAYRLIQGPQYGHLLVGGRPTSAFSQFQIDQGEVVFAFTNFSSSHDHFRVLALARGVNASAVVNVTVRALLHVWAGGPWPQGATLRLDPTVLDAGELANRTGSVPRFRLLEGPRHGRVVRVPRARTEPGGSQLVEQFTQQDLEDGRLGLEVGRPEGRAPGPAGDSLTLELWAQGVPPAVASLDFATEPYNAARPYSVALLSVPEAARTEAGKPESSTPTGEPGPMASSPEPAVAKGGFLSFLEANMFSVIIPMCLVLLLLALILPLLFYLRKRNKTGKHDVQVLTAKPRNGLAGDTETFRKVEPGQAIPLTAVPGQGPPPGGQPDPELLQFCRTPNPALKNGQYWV

B1: scFv C21: HMW-MAA-specific fully human scFv from semi-synthetic phage display library; VH SEQ ID NO: 5, VL SEQ ID NO: 6 (antibody, listed as Homo sapiens, V domains shown)
VH: QVQLVQSGAEVKKPGSSVKVSCKASGGTFSSYAISWVRQAPGQGLEWMGGIIPIFGTANYAQKFQGRVTITADESTSTAYMELSSLRSDDTAVYYCARALDPITFDSWGQGTLVTVSR
VL: SELTQDPAVSVALGQTVRITCQGDSLRSYYASWYQQKPGQAPVLVIYGKNNRPSGIPDRFSGSSSGNTASLTITGAQAEDEADYYCNSRDSSGNHVVFGGGTKLTVLGRS
modifications: scFv linker
Reactivity in ELISA with Colo38, FF2376 fibroblasts and T24 bladder carcinoma cells [1]: selective reactivity with Colo38 cells
Staining of formalin fixed paraffin embedded melanocytic lesions ([2]; formalin fixed paraffin embedded): did not stain
Staining of frozen melanocytic lesions in the immunoperoxidase reaction ([2]; frozen sections): stained frozen melanocytic lesions
Metastatic lesions stained with a heterogeneous pattern ([2]; metastatic lesions): 3 lesions
Metastatic lesions stained with a homogeneous pattern ([2]; metastatic lesions): 3 lesions
Metastatic lesions with cytoplasmic staining ([2]; metastatic lesions): 3 lesions
Metastatic lesions with membranous and cytoplasmic staining ([2]; metastatic lesions): 3 lesions
Primary lesions stained with a heterogeneous pattern ([2]; out of 15 primary lesions): 2 lesions
Primary lesions stained with a homogeneous pattern ([2]; out of 15 primary lesions): 9 lesions
Pigmented nevi stained homogeneously (membranous and cytoplasmic pattern) ([2]; pigmented nevi): 4
Primary lesions with cytoplasmic staining ([2]; primary lesions): 6 lesions
Primary lesions with membranous and cytoplasmic staining ([2]; primary lesions): 4 lesions
Primary lesions with membranous staining ([2]; primary lesions): 1 lesions
Inhibition of binding of mAb VF1-TP34 to SK-MEL-28 cells [3]: partially inhibited each other

Source: patent US9694061B2, “Fully human antibodies to high molecular weight-melanoma associated antigen and uses thereof” (University of Pittsburgh—Of the Commonwealth System of …, priority 2008, dated 2017)
